Consider 2 molecules from paper PMC3799444.

Numbering of substitutions follows the chain as printed. Names may count otherwise.

Assay in all cases: EMSA
The target in one series is Polµ WT (Homo sapiens, UniProt Q9NP87).
The target of the next series is T1, Polλ Q243R (Homo sapiens, UniProt Q9UGP5 1-575, Q243R).
T1 sequence: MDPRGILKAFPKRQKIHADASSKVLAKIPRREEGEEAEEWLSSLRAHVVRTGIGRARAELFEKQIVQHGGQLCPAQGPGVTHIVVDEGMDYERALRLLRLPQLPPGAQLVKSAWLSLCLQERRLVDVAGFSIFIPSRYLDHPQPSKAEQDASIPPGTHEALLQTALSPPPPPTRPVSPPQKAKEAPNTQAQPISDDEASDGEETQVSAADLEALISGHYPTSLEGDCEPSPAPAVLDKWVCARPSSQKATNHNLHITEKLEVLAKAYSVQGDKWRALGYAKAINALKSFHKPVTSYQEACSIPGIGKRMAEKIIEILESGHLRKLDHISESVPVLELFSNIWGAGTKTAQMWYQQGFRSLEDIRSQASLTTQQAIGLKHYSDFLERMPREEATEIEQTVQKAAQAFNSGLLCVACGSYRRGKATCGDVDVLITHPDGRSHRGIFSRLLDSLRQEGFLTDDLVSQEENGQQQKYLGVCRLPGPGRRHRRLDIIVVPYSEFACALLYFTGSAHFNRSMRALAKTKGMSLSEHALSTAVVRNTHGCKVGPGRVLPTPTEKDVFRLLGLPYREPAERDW

In the next series the target is T2, Polλ W239Y (Homo sapiens, UniProt Q9UGP5 1-575, W239Y).
T2 sequence: T1 sequence with W239Y, R243Q

Chain of Polµ WT (Q9NP87 whole entry): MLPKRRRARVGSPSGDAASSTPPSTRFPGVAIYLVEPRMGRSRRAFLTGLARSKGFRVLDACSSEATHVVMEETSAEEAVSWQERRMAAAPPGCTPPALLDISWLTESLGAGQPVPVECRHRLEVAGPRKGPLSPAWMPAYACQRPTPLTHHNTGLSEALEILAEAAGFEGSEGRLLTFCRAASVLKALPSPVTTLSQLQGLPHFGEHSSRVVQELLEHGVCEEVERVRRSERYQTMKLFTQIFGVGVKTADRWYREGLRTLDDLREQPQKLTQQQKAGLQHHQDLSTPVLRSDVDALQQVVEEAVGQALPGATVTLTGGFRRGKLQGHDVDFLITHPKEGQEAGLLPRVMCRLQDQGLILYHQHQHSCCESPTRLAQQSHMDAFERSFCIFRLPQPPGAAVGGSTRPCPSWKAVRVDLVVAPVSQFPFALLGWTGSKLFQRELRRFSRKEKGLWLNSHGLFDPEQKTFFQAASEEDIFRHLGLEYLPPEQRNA

B1: 1 nt gap Sp1C/T13C/DG1-P (dsDNA)
DNA 1: GATCACAGTGAGTAC
DNA 2: AGAAGTGTATCTCGTACTCACTGTGATC
DNA 3: AGATACACTTCT
modifications: 5'-phosphate on DG1-P
B1: the binding result with Polµ WT is “binds”.

B2: 5 nt gap FP-P/FP-T5/FP-D (dsDNA)
DNA 1: GGCCACGCAATGTTGACGTTTTTCGACAAGACCTCAGTAT
DNA 2: GGCAGCTTGGATCTTGTCGAAAAACGTCAACATTCGCCTAGGCTTCGGCAGCATATACTGAGGTCTTGTCGAAAAACGTCAACATTGCGTGGCC
DNA 3: GCCGAAGCCTAGGCGAATGTTGACGTTTTTCGACAAGATCCAAGCTGCC
modifications: 5'-phosphate on FT-D
As for B2, the binding result with Polλ Q243R and with Polλ W239Y was “binds” each time.
